The results in this text go back to article PMC3285366.

The test concerns the target T1, Mps1(1–239) (human), P33981.
T1 chain: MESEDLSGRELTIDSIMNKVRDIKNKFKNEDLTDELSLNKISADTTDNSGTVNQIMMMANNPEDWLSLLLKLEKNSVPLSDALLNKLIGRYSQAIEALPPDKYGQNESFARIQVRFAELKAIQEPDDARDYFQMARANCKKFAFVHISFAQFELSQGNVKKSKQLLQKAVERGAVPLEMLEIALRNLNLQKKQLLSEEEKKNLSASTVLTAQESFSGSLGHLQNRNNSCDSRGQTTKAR
Description: SEC. The settings on record: remark: other sources report otherwise.

As a reminder, the stoichiometry N is the number of molecules, sites or subunits per partner or assembly.

B1: Mps1(1–239), P33981 1-239 (domain or fragment)
chain: T1 chain
As for B1, the stoichiometry N is 2.
